B1: Cadherin-related family member 2 (Homo sapiens), Q9BYE9 (parent)
chain: MAQLWLSCFLLPALVVSVAANVAPKFLANMTSVILPEDLPVGAQAFWLVAEDQDNDPLTYGMSGPNAYFFAVTPKTGEVKLASALDYETLYTFKVTISVSDPYIQVQREMLVIVEDRNDNAPVFQNTAFSTSINETLPVGSVVFSVLAVDKDMGSAGMVVYSIEKVIPSTGDSEHLFRILANGSIVLNGSLSYNNKSAFYQLELKACDLGGMYHNTFTIQCSLPVFLSISVVDQPDLDPQFVREFYSASVAEDAAKGTSVLTVEAVDGDKGINDPVIYSISYSTRPGWFDIGADGVIRVNGSLDREQLLEADEEVQLQVTATETHLNIYGQEAKVSIWVTVRVMDVNDHKPEFYNCSLPACTFTPEEAQVNFTGYVDEHASPRIPIDDLTMVVYDPDKGSNGTFLLSLGGPDAEAFSVSPERAVGSASVQVLVRVSALVDYERQTAMAVQVVATDSVSQNFSVAMVTIHLRDINDHRPTFPQSLYVLTVPEHSATGSVVTDSIHATDPDTGAWGQITYSLLPGNGADLFQVDPVSGTVTVRNGELLDRESQAVYYLTLQATDGGNLSSSTTLQIHLLDINDNAPVVSGSYNIFVQEEEGNVSVTIQAHDNDEPGTNNSRLLFNLLPGPYSHNFSLDPDTGLLRNLGPLDREAIDPALEGRIVLTVLVSDCGEPVLGTKVNVTITVEDINDNLPIFNQSSYNFTVKEEDPGVLVGVVKAWDADQTEANNRISFSLSGSGANYFMIRGLVLGAGWAEGYLRLPPDVSLDYETQPVFNLTVSAENPDPQGGETIVDVCVNVKDVNDNPPTLDVASLRGIRVAENGSQHGQVAVVVASDVDTSAQLEIQLVNILCTKAGVDVGSLCWGWFSVAANGSVYINQSKAIDYEACDLVTLVVRACDLATDPGFQAYSNNGSLLITIEDVNDNAPYFLPENKTFVIIPELVLPNREVASVRARDDDSGNNGVILFSILRVDFISKDGATIPFQGVFSIFTSSEADVFAGSIQPVTSLDSTLQGTYQVTVQARDRPSLGPFLEATTTLNLFTVDQSYRSRLQFSTPKEEVGANRQAINAALTQATRTTVYIVDIQDIDSAARARPHSYLDAYFVFPNGSALTLDELSVMIRNDQDSLTQLLQLGLVVLGSQESQESDLSKQLISVIIGLGVALLLVLVIMTMAFVCVRKSYNRKLQAMKAAKEARKTAAGVMPSAPAIPGTNMYNTERANPMLNLPNKDLGLEYLSPSNDLDSVSVNSLDDNSVDVDKNSQEIKEHRPPHTPPEPDPEPLSVVLLGRQAGASGQLEGPSYTNAGLDTTDL

The variants in this assay derive from B1. The settings on record: with mast2_human MAST2, Q6P0Q8.
Chain of mast2_human MAST2, Q6P0Q8 (Q6P0Q8 whole entry): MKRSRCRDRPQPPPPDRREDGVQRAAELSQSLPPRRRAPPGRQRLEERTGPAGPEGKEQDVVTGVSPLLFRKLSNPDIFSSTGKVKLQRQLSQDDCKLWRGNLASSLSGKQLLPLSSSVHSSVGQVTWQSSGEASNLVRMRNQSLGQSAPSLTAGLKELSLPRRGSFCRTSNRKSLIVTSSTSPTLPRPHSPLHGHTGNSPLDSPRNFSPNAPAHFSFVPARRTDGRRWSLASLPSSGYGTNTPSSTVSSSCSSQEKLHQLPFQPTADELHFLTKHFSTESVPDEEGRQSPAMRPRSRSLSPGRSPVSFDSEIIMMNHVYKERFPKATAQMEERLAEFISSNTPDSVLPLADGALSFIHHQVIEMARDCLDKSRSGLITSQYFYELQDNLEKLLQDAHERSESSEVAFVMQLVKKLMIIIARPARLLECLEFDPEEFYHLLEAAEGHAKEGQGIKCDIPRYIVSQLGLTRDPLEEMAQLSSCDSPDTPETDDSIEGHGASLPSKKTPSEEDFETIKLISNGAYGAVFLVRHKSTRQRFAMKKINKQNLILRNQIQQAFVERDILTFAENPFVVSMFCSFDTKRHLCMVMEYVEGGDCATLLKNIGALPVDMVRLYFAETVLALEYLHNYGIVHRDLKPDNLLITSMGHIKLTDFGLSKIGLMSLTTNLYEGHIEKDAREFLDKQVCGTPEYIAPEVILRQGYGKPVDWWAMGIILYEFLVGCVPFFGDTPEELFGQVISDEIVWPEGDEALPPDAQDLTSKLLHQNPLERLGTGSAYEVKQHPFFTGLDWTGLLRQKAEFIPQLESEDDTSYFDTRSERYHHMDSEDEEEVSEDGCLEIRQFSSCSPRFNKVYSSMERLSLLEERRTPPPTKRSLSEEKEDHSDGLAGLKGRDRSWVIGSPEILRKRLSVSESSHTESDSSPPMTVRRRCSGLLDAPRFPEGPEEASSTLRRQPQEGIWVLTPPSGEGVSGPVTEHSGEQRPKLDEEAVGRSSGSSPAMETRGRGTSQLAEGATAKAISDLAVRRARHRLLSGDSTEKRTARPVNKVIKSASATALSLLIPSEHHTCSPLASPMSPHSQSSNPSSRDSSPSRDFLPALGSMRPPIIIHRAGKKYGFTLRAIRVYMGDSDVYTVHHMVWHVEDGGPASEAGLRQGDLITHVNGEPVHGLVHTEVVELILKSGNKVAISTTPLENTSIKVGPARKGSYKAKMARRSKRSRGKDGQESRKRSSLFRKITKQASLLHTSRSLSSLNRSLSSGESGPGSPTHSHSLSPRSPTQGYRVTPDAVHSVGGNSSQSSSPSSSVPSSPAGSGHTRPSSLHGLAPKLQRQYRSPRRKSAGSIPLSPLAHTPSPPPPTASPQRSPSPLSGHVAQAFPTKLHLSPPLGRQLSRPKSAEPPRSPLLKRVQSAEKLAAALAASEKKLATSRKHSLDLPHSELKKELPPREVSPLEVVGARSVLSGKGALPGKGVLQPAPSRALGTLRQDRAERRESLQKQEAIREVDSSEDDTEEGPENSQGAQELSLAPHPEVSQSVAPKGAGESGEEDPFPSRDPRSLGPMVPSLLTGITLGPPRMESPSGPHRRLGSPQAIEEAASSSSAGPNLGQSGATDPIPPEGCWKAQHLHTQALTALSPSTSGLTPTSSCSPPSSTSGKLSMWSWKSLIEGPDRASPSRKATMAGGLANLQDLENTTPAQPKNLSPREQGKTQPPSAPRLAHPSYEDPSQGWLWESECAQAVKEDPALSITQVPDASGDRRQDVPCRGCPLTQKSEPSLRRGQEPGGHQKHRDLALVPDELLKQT
Turning to L1310R, the “effect of a mutation on the interaction” value is on record as “decreasing interaction”.

(Values after IntAct's records for PubMed 12117771.)
